From US20040023916A1 (NATIONAL INSTITUTES OF HEALTH NIH, published 2004)

Biological target: T1, mouse Plasma Cell Membrane Glycoprotein-1 (PC-1) (mouse, UniProt P06802 1-906, limits assumed)
T1 construct: Measured as NTPPPH activity, which in these cells also includes the isozyme B10; also called Enpp1; NPP1
T1 sequence (looked up): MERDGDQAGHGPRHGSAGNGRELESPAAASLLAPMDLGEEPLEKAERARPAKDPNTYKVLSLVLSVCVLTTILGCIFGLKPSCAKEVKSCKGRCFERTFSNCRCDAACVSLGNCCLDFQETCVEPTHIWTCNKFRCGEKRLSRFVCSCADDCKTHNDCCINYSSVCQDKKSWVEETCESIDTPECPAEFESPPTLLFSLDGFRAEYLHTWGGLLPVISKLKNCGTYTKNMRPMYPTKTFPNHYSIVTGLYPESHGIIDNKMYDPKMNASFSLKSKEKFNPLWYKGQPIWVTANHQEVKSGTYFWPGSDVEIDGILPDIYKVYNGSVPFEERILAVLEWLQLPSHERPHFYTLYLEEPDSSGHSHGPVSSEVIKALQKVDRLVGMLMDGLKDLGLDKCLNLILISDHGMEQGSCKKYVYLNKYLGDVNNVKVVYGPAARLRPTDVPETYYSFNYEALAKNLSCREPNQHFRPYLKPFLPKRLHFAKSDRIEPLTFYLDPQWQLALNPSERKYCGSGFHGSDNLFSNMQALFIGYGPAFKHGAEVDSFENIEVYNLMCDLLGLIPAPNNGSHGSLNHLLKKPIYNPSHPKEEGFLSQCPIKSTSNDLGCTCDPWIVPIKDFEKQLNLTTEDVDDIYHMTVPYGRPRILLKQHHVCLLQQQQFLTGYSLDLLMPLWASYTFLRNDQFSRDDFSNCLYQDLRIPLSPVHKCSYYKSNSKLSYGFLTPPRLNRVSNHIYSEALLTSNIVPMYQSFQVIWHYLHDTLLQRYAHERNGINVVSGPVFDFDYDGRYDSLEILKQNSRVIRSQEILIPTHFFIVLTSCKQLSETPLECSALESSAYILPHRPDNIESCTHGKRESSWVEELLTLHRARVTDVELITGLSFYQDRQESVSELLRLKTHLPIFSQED
Experiment: co-immunoprecipitation from osteoblast cell lysates, enzyme activity on beads
Text: Paradoxically, transfection of wild-type TNAP was associated with a significant increase in cell-associated NTPPPH, and an even greater increase in MV fraction-associated NTPPPH activity in MC3T3 cells, but no significant change in activity of transglutaminase activity, which served as a control enzyme for these experiments. […] Specifically, immunoprecipitation of TNAP from osteoblast cell lysates isolated >85% of the TNAP activity, but was not associated with any co-immunoprecipitation of NTPPPH activity (starting mean cell lysate NTPPPH 1.7 Units, and alkaline phosphatase 4.3 Units; beads after immunoprecipitation with antibody to TNAP had mean of 0.09 Units NTPPPH and 4.1 Units alkaline phosphatase; beads after immunoprecipitation with antibody to PC-1 had mean of 1.3 Units NTPPPH and 0.11 Units alkaline phosphatase, n=5).

binding result: no binding
B1: mouse tissue-nonspecific alkaline phosphatase (TNAP) (enzyme, UniProt P09242 18-501, looked up)
chain: FVPEKERDPSYWRQQAQETLKNALKLQKLNTNVAKNVIMFLGDGMGVSTVTAARILKGQLHHNTGEETRLEMDKFPFVALSKTYNTNAQVPDSAGTATAYLCGVKANEGTVGVSAATERTRCNTTQGNEVTSILRWAKDAGKSVGIVTTTRVNHATPSAAYAHSADRDWYSDNEMPPEALSQGCKDIAYQLMHNIKDIDVIMGGGRKYMYPKNRTDVEYELDEKARGTRLDGLDLISIWKSFKPRHKHSHYVWNRTELLALDPSRVDYLLGLFEPGDMQYELNRNNLTDPSLSEMVEVALRILTKNLKGFFLLVEGGRIDHGHHEGKAKQALHEAVEMDQAIGKAGAMTSQKDTLTVVTADHSHVFTFGGYTPRGNSIFGLAPMVSDTDKKPFTAILYGNGPGYKVVDGERENVSMVDYAHNNYQAQSAVPLRHETHGGEDVAVFAKGPMAHLLHGVHEQNYIPHVMAYASCIGANLDHCAWAG
notes: The lysates are called only 'osteoblast cell lysates'; Some MC3T3 cells were transfected with human TNAP, so the species in this experiment is not certain; also called Akp2
